Measured values taken from US20260285972 (published 2026).
Residue numbers refer to the chain shown, from its start.

T1: recombinant human GPRC5D-Flag-His (human, UniProt Q9NZD1)
T1 chain: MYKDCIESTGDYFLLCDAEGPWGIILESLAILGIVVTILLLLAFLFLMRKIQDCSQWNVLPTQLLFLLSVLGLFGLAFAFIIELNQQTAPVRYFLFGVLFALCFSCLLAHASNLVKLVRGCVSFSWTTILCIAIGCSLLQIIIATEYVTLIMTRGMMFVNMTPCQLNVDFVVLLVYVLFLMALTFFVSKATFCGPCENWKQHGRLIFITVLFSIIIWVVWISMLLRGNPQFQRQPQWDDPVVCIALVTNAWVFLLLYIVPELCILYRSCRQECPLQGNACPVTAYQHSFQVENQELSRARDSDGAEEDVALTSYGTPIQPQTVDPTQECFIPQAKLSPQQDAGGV

B1: 22Mono3L7F (antibody, V domains shown)
VH: EVTLKESGPVLVKPTETLTLTCTASGYPFTNYWMHWVRQPPGKALEWIGEINPSNGRTNYNEKFKSRATLSLDKSKSQAVLTMTNMDPVDTATYYCARGFAYWGQGTLVTVSS
VL: EIVLTQSPATLSLSPGERATLSCSASSSVSFMHWYQQKPGQAPRRWIYDTTKLASGIPARFSGSGSGTDYTLTISSLEPEDFAVYYCQQWNSHPLTFGQGTKLEIK
modifications: Flag-His tag, ACRO GPD-H52D3
B2: 22Mono5JO4 (antibody, V domains shown)
VH: QVQLVQSGAEVKKPGSSVKVSCRASGYPFTNYWMHWVRQAPGQGLEWIGEINPSNGRTNYNEKFKSRATLTLDKLTSTAYMELSSLTSEDTALYYCARGFAYWGQGTLVTVSS
VL: B1 VL with A9G, A59D, S76R, K102T, L103V
modifications: Flag-His tag, ACRO GPD-H52D3
B3: 22Mono4DN4 (antibody, V domains shown)
VH: ELVQSGAEVKKPGSSVKVSCKASGYPFTNYWMHWVRQAPGQGLEWIGEINPSNGRTNYNEKFKSRATLTLDKSTSTAYMELSSLRSEDTAVYYCARGFAYWGQGTLVTVSS
VL: B1 VL with I57V, L103V
modifications: Flag-His tag, ACRO GPD-H52D3
B4: 22Mono5UQY (antibody, V domains shown)
VH: QVQLQESGPGLVKPSETLSLTCTASGYPFTNYWMHWVRQPPGKGLEWIGEINPSNGRTNYNEKFKSRATLSLDKSKNQASLNLDSVSAADTAIYYCARGFAYWGKGSTVTVSS
VL: AIQLTQSPSSLSASVGDRVTITCSASSSVSFMHWYQQKPGKAPKRWIYDTTKLASGVPSRFSGSGSGTDYTFTISSLQPEDIATYYCQQWNSHPLTFGPGTKVDIK
modifications: Flag-His tag, ACRO GPD-H52D3

Target: T1, recombinant human GPRC5D-Flag-His
Assay: BLI

Binder | Kd
B1 | 25.6 nM
B2 | 0.787 nM
B3 | 16.9 nM
B4 | 5.67 nM
